From patent publication US20060134756A1 (ZymoGenetics, published 2006)

Target: T1, CRF2-4/IL-22RA heterodimeric receptor on BaF3 cells (BaF3/CRF2-4/IL-22RA cells) (human, UniProt Q08334 20-325, limits assumed)
T1 sequence 1: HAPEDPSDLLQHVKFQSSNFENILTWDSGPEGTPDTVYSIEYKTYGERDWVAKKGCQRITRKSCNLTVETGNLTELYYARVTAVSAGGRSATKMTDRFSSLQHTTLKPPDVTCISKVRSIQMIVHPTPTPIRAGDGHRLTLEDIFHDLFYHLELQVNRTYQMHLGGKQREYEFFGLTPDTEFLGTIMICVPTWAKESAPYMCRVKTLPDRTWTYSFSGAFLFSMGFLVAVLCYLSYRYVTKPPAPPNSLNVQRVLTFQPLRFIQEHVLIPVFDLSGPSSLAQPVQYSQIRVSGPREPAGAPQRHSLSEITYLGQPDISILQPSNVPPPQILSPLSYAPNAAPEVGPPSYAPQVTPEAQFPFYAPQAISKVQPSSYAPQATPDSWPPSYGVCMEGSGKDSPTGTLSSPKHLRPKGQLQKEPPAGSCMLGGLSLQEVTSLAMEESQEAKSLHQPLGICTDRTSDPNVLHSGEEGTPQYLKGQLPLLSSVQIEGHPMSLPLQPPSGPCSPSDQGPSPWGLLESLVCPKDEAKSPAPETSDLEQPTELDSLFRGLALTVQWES
T1 sequence 2: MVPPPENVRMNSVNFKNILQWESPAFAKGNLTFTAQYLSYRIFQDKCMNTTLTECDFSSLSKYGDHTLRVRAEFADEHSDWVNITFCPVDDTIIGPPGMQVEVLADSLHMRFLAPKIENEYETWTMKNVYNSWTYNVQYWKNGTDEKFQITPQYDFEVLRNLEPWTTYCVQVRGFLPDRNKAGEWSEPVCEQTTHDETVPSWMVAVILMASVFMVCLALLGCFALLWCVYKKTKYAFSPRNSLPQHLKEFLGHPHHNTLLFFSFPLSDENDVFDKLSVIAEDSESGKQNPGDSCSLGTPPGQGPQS
Experiment: cell-based or functional assay

proliferation of BaF3/CRF2-4/IL-22RA cells (Alamar Blue), IL-22-CEE at 0.06 ng/ml: ~2 fold over background
B1: IL-22-CEE (ligand)
chain: LLLALLVQGGAAAPISSHCRLDKSNFQQPYITNRTFMLAKEASLADNNTDVRLIGEKLFHGVSMSERCYLMKQVLNFTLEEVLFPQSDRFQPYMQEVVPFLARLSNRLSTCHIEGDDLHIQRNVQKLKDTVKKLGESGEIKAIGELEYMPME
